Measured values taken from patent US20080261267A1, “Cellulases from Rumen” (priority 2004, published 2008).

Experiments:
Assay type in all cases: biochemical
[1] = TLC analysis of hydrolysis products; settings: pH 5.6, 50° C.
From the text: FIG. 7 depicts the result of thin layer chromatography TLC analysis of products of CMC hydrolyzed by endoglucanases derived from a rumial genomic DNA library. The methods used for cellulase and substrate preparation, hydrolysis, TLC, and visualization are described in Example 5. The hydrolysis products glucose, cellobiose, cellotriose are shown an the right side. […] Different pattern was found when using short-chain beta-1,4-glucans.
The products formed by hydrolysis of cellulose-based substrates (cellobiose, cellotetraose, cellopentaose, cellulose and carboxymethyl cellulose) were analysed by thin-layer chromatography (TLC). Solutions containing 20 μg of E. coli cell lysate proteins and 0.2% (wt/vol) substrate in 50 mM acetate buffer (pH 5.6) were incubated at 50° C. until maximum conversion was achieved. The reactions were terminated by heating the preparation for 5 min at 95° C. and hydrolysis products were separated by TLC on silica gel plates (Merck, Darmstadt, Germany) by using a mixture chloroform, glacial acetic acid, and water (6:14:1) as the solvent. […] Sugars were visualized by heating 105° C. for 15 min the plates which were previously sprayed with a reagent containing amine (2 ml), diphenylamine (2 g), acetone (100 ml) and 85% H3PO4 (15 ml).

[2] = Cation dependence; settings: 10 to 100 mM
Method: FIG. 3 represents Table 3 giving an overview over the biochemical properties of the cellulases according to the invention. Reaction was performed at the optimum pH and temperature for each done using CMC as substrate. […] The values for clones pBKRR.1, 9, 11, 13, 14, 16 and 22 are depicted. For each clone the following data are given: • maximum pH at which the remaining activity after 24 h incubation at the indicate pH is >90% (column “Stable at pH”). […] Activity was measured after 2 h incubation and compared with a control reaction in buffer lacking dimethylsulfoxide, • detergent resistance given by the remaining activity in the corresponding buffer (optimum pH) containing the indicate detergent at a concentration for 0 to 3%. […] The effect of mono- (Na^+, K^+, NH4^+, and divalent cations (Ca^2+, Mn^2+, Mg^2+, Sr^2+, Fe^2+, Cu^2+, Ni^2+, Co^2+, Zn^2+) was first examined by treating the enzyme with chelating agents (EDTA and EGTA) to remove any endogenous divalent cations, followed by adding cations to the reaction mixture.
[…] Inhibitors such as N-ethylmalemide, iodoacetate and p-chloromercuribenzoate at concentration from 1-5 mM were incubated in the presence of the enzyme for 30 min (30° C.) prior to the addition of the substrate (CMC). The effects of detergents on the endoglucanase activity was analysed by adding of 1-3% (wt/vol) detergent to the enzyme solution. In all cases, the enzyme activity was assayed in triplicate using the standard cellulose assay described above and the residual activity was expressed as percent of the control value (without addition of chemicals).

[3] = Specific activity of purified endoglucanases; settings: purified to homogeneity; pH 5.6 and 50° C.; CMC as substrate
Method: FIG. 2 represents Table 2 which contains the data obtained by purification of endoglucanases of seven clones (pBKRR.1, 9, 11, 13, 14, 16 and 22) with respect to the specific activity. […] They were purified to homogeneity and their specific activity was estimated at pH 5.6 and 50° C., using CMC as substrate.
The endoglucanases were recovered from 1-liter shaked flask fermentations, in Luria-Bertany broth plus 50 μg of Kanamycin per ml. One gram of fermentation broth was mixed with 10 ml of standard buffer in a 50-ml Falcon tube. The solution was vortexed and then incubated with DNase I grade II, for 30-45 min, and then sonicated for 4 min total time. A sample of the soluble fraction was separated from insoluble debris by centrifugation (10,000×g, 30 min, 4° C.) and proteins were precipitated by addition of 80% chilled acetone (−20° C.). Proteins were resuspended in standard buffer and stored at −20° C. at a concentration of 5 mg/ml until use. The amount of protein expression was examined using SDS-PAGE with 10-12% acrylamide. […] The gel region containing the active cellulase, detected in a parallel track by activity staining (using Ostazin brillian-blue carboxymethyl cellulose) was excised, suspended in two volumes of standard fuffer and homogenized in a glass tissue homogenizer. […]
The standard cellulase activity was determined in a continuous spectrophotometric assay by measuring the release of reducing sugars from the 4% (wt/vol carboxymethyl cellulose (CMC) in 0.5-ml reaction mixtures containing 50 mM sodium acetate buffer, pH 5.6, at 40° C., using the dinitrosalycilic acid (DNS) method (Bernfeld, P. (1955) Amilases and b. In: Colowick S P, Kaplan N O (eds). Methods in Enzymology, Academic Press, New York pp. 133-155). The reaction was performed in 0.5 ml scale containing 20 mg substrate and 5 mg lyophilised cells or 0.1 mg purified enzyme. Reactions were allow to proceed for a time period of 5-30 min after which the samples were centrifuge (10,000×g, 3 min). […] Finally, each well was diluted with 150 μl water and the absorbance at 550 nm was measured. […]

[4] = pH-dependent activity and pH stability; settings: cell lysates; CMC; pH 3.5 to 10.5 at 40° C.
Method: (§1) FIG. 3 represents Table 3 giving an overview over the biochemical properties of the cellulases according to the invention. Reaction was performed at the optimum pH and temperature for each done using CMC as substrate. […] The values for clones pBKRR.1, 9, 11, 13, 14, 16 and 22 are depicted. For each clone the following data are given: • maximum pH at which the remaining activity after 24 h incubation at the indicate pH is >90% (column “Stable at pH”). […] Activity was measured after 2 h incubation and compared with a control reaction in buffer lacking dimethylsulfoxide, • detergent resistance given by the remaining activity in the corresponding buffer (optimum pH) containing the indicate detergent at a concentration for 0 to 3%. […]
(§2) FIG. 4 a-c represent the results of the determination of pH and temperature optima showing graphically views of the pH-dependence activity and temperature-dependence activity of the polypeptides according to the invention. The pH optima of rumial endoglucanases were measured under conditions described in Example 5: 4% CMC, 0.5 mL of 50 mM buffer at the corresponding pH and 0.1 mg E. coli cell lysates, for 5-30 min, at 40° C. Effect of temperature on endoglucanase activity was measured in 50 mM sodium acetate buffer pH 5.6. […]

[5] = Thermal activity and thermostability; settings: at the pH optima; CMC
Method: as §1, §2

B1: pBKRR.11: rumen endo-beta-1,4-glucanase, sequences FIG. 14/22 (protein)
chain: MRILKLFFIALITAAPIFSYAQTVDDMKSVFVDAHTWTASIKMGWNLGNALECQTGWNDKAFCWNPANNFNAETSWGNPKTTKEMLQAVREAGFDAVRIPVNWGAHISDESTCTIDAAWMNRVQEVVDWALQLGFKVLLNTHHEYWLEWHPTYDREQANNNKLAKIWMQVANRFKDYGPDLAFAGINEVHLDGKWNVPTEENTAVTNSYNQTFVNTVRATGGNNLYRNLVVQCYSCNPDYGLTGFVVPADKVENRLSIEYHYYRPWDYAGDAPKYYYWGEAYKQYGEVSTADNEAKVNADFARYKAAWYDKGLGVIMGEWGASQHYQVESKAKQLENLYYHFKTVREAAQKNNIATFVWDNNACGNGGDKFGIFDRNDNMSVAFPEALNAIQEASGQTVVDYSRQALQPSVVYQGDELMNWGEGKQLIIAGSKFAYFTAESKLMVTLDAEPGADYDMLQFAYGDWKSKPLMIISGRSYKGQVEPSKINGSRNTYTLFIGFKESSLNQLKDKGITLQGHGLRLRNVVVMPEGLVLGL
modifications: Description of sequence sequence derived from genomic DNA library from rumen ecosystem, particularly amino acid sequence of clones pBKRR 11, 10 and 12; RR10=RR11=RR12; (see Figure 22)
main hydrolysis products of CMC [1]: cellobiose and cellotriose | stimulatory effect of Mg^2+ ([2]; chloride salt): 127% | influence of mono- and divalent cations on activity ([2]; chloride salts, after EDTA and EGTA treatment): not influenced | specific activity [3]: 6.42 µmol/min/mg | pH of highest (maximal) activity [4]: 4.5 pH | temperature of improved activity and thermostability [5]: 50 °C
